# Reference: article PMC12695944, “Geminin inhibits DNA replication licensing by sterically blocking CDT1-MCM2 interactions” (Nature Communications, 2025)
# T1: CDT1^ΔN (N-terminally truncated CDT1^158-546) (human, UniProt Q9H211 158-546)
# T1 chain: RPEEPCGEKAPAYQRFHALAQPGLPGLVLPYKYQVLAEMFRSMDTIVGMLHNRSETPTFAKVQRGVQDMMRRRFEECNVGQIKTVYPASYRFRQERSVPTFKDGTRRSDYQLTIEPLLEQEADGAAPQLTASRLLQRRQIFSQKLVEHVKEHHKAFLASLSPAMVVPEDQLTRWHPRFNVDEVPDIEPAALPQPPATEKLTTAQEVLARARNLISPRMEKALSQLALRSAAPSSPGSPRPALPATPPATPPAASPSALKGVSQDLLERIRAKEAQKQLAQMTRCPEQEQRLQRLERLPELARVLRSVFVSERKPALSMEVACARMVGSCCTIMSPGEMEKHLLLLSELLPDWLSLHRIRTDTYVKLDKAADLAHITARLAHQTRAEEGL
# T2: CDT1^ΔN (N-terminally truncated CDT1^158-546) (human, UniProt Q9H211 158-546)
# T2 construct: CDT1, human, UniProt Q9H211, residues 158-546 (lacks the unstructured N-terminus); Plasmid is in Supplementary Data 1; The His tag serves for capture on the NTA chip in the SPR with peptides; also called standard CDT1 construct; source: E. coli BL21 (DE3), purified (HisTrap Excel, POROS HS, Superdex 200); not shown: His6, N-terminal, kept
# T2 sequence (looked up): T1 chain
# B1: Gem^76–140 (peptide, UniProt O75496 76-140, looked up)
# peptide: Ac-KNLGGVTQESFDLMIKENPSSQYWKEVAEKRRKALYEALKENEKLHKEIEQKDNEIARLKKENKE-NH2
# notes: geminin, human, UniProt O75496, residues 76-140; Made on Rink amide resin; source: synthetic peptide
# B2: Gem^76–135 (peptide, UniProt O75496 76-135, looked up)
# peptide: Ac-KNLGGVTQESFDLMIKENPSSQYWKEVAEKRRKALYEALKENEKLHKEIEQKDNEIARLK-NH2
# notes: Made on Rink amide resin; source: synthetic peptide
# B3: Gem^76–145 (chemically synthesised peptide) (peptide, UniProt O75496 76-145, looked up)
# peptide: Ac-KNLGGVTQESFDLMIKENPSSQYWKEVAEKRRKALYEALKENEKLHKEIEQKDNEIARLKKENKELAEVA-NH2
# notes: geminin, human, UniProt O75496, residues 76-145; Made on Rink amide resin; The recombinant recGem^76–145 is another molecule, used only in licensing assays; source: synthetic peptide
# B4: Gem^90–145 (peptide, UniProt O75496 90-145, looked up)
# peptide: Ac-IKENPSSQYWKEVAEKRRKALYEALKENEKLHKEIEQKDNEIARLKKENKELAEVA-NH2
# notes: geminin, human, UniProt O75496, residues 90-145; Made on Rink amide resin; source: synthetic peptide
# B5: Gem^82–145 (peptide, UniProt O75496 82-145, looked up)
# peptide: Ac-TQESFDLMIKENPSSQYWKEVAEKRRKALYEALKENEKLHKEIEQKDNEIARLKKENKELAEVA-NH2
# notes: geminin, human, UniProt O75496, residues 82-145; Made on Rink amide resin; source: synthetic peptide
# B6: Gem^96–135 (minimal CDT1-binding peptide) (peptide, UniProt O75496 96-135, looked up)
# peptide: Ac-SQYWKEVAEKRRKALYEALKENEKLHKEIEQKDNEIARLK-NH2
# notes: as for B2
# B7: Gem^96–140 (peptide, UniProt O75496 96-140, looked up)
# peptide: Ac-SQYWKEVAEKRRKALYEALKENEKLHKEIEQKDNEIARLKKENKE-NH2
# notes: geminin, human, UniProt O75496, residues 96-140; Made on Rink amide resin; source: synthetic peptide
# B8: Gem^96–145 (peptide, UniProt O75496 96-145, looked up)
# peptide: Ac-SQYWKEVAEKRRKALYEALKENEKLHKEIEQKDNEIARLKKENKELAEVA-NH2
# notes: geminin, human, UniProt O75496, residues 96-145; Made on Rink amide resin; source: synthetic peptide
# B9: Gem^96–160 (geminin coiled-coil peptide) (peptide, UniProt O75496 96-160, looked up)
# peptide: Ac-SQYWKEVAEKRRKALYEALKENEKLHKEIEQKDNEIARLKKENKELAEVAEHVQYMAELIERLNG-NH2
# notes: geminin, human, UniProt O75496, residues 96-160 (the full coiled-coil); Made on Rink amide resin; source: synthetic peptide
# B10: Gem^102–160 (peptide, UniProt O75496 102-160, looked up)
# peptide: Ac-VAEKRRKALYEALKENEKLHKEIEQKDNEIARLKKENKELAEVAEHVQYMAELIERLNG-NH2
# notes: geminin, human, UniProt O75496, residues 102-160; Made on Rink amide resin; source: synthetic peptide
# B11: Gem^LINK (geminin with a short glycine linker between the two CDT1 interaction interfaces) (natural protein)
# chain: MNPSMKQKQEEIKENIKNSSVPRRTLKMIQPSASGSLVGRENELSAGLSKRKHRNDHLTSTTSSPGVIVPESSENKNLGGVTQESFDLMIGGGGGKENPSSQYWKEVAEKRRKALYEALKENEKLHKEIEQKDNEIARLKKENKELAEVAEHVQYMAELIERLNGEPLDNFESLDNQEFDSEEETVEDSLVEDSEIGTCAEGTVSSSTDAKPCI
# modifications: Full-length geminin with a 5x Gly insertion between I90 and K91 (K96 in post-insertion numbering; no deletion, since mutant residues 76-165 correspond to WT 76-160). Homodimer assumed as for wild …
# Biological target: T1, CDT1^ΔN (N-terminally truncated …)
# Test: SPR
# Conditions: not given
row,Kd [nM],Binder
1,11,B1
2,7,B2

# Biological target: T1, CDT1^ΔN (N-terminally truncated …)
# Test: SPR
# Conditions: not given
# Remark: another data set of the same source
row,koff [s⁻¹],Binder
1,0.0033,B1
2,0.0029,B2

# Biological target: T1, CDT1^ΔN (N-terminally truncated …)
# Test: SPR
# Conditions: not given
# Remark: another data set of the same source
row,koff [s⁻¹],Binder
1,0.0034,B3
2,0.045,B4
3,0.0032,B5

# Biological target: T1, CDT1^ΔN (N-terminally truncated …)
# Test: SPR
# Conditions: not given
# Remark: another data set of the same source
row,koff [s⁻¹],Binder
1,0.024,B6
2,0.022,B7
3,0.031,B8

# Biological target: T1, CDT1^ΔN (N-terminally truncated …)
# Test: SPR
# Conditions: not given
# Remark: another data set of the same source
row,Kd [nM],Binder
1,22,B6
2,21,B9
3,32,B7

# Biological target: the molecule itself
# Test: SEC-MALS; Superdex 200 Increase 10/300 GL; peptides 500–1000 µM, 100 µL injected; 10 mM HEPES, 150 mM NaCl, 1 mM TCEP-HCl, pH 7.5; 0.25 mL/min
# Conditions: not given
row,Binder,stoichiometry N
1,B1,2
2,B3,2
3,B2,2
4,B6,2
5,B9,2
6,B4,2
7,B7,2
8,B5,2
9,B8,2
10,B10,2

# Biological target: T2, CDT1^ΔN (N-terminally truncated …)
# Test: SPR; CDT1^ΔN with Gem^LINK; steady-state 1:1 binding model; chip and cycle format not stated for Gem^LINK; 25 °C; 10 mM HEPES, 500 mM NaCl, 50 µM EDTA, 1 mM TCEP-HCl, 0.05% Tween-20, pH 8.0
# Conditions: both partners purified
row,Kd [nM],Binder
1,38,B11

# Biological target: T2, CDT1^ΔN (N-terminally truncated …)
# Test: SPR; multi-cycle; CDT1^ΔN captured by its N-terminal His tag on an NTA chip; geminin peptides 0.49–250 nM (two-fold steps); 25 °C; 10 mM HEPES, 500 mM NaCl, 50 µM EDTA, 1 mM TCEP-HCl, 0.05% Tween-20, pH 8.0; 1:1 kinetic model of analyte dimer:CDT1, steady-state 1:1 model for Gem^96–160 and Gem^102–160
# Conditions: both partners purified
binding result,Kd [nM],Binder
binds,,B1
,5.7,B3
binds,,B2
binds,,B6
binds,,B9
,93,B4
binds,,B7
,5.8,B5
,38,B8
,2800,B10
